Article PMC5875430 (Leukemia, 2013)

Tests used:
[1] = molecular target: T1, class IV granulocyte colony-stimulating factor receptor (alternatively spliced, truncated isoform) (human, UniProt Q99062-4 25-783); experiment: radioligand binding
T1 sequence (looked up): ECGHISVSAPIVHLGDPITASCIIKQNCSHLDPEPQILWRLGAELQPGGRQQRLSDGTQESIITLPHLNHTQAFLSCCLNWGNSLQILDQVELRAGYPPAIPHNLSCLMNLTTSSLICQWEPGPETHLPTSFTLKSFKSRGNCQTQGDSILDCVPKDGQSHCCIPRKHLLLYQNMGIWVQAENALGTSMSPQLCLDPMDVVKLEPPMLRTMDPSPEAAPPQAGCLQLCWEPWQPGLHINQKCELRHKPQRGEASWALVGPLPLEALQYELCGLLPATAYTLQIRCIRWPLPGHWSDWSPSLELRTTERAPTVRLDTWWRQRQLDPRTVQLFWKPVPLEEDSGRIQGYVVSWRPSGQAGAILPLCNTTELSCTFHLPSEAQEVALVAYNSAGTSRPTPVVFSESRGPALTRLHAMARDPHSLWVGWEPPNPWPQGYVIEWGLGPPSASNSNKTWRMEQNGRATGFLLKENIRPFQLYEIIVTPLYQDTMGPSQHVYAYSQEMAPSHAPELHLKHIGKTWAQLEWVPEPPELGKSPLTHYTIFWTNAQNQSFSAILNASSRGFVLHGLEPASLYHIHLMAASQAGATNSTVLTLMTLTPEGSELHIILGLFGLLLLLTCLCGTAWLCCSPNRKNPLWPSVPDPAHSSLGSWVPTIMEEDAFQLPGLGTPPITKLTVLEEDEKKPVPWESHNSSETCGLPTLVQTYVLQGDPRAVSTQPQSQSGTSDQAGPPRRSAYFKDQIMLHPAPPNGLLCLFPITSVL

[2] = molecular target: T2, class I granulocyte colony-stimulating factor receptor (canonical, full-length isoform) (human, UniProt Q99062 25-836); experiment: radioligand binding
T2 sequence (looked up): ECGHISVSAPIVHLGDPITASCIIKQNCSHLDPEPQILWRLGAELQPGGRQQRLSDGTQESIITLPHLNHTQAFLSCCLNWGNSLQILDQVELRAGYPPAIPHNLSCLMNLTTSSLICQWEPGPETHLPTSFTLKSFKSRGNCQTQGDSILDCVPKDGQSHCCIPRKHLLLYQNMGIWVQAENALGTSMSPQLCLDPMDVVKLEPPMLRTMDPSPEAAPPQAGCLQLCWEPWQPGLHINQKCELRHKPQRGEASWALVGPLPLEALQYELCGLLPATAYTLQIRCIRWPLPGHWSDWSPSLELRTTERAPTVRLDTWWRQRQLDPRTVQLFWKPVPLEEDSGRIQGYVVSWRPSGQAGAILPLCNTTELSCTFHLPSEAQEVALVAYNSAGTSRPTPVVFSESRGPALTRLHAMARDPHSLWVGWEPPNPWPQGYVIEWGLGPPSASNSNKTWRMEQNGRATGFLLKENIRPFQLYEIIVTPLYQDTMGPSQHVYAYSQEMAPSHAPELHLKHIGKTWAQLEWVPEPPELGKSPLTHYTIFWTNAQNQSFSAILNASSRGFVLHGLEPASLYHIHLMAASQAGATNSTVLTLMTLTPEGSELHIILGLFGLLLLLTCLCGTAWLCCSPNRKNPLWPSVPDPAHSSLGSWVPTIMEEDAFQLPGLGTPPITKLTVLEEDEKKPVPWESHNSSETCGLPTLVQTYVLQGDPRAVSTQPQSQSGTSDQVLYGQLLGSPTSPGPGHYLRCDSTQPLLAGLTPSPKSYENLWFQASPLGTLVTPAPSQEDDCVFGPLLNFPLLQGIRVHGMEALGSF

- Kd [1]: 0.53 nM
- Kd [2]: 0.58 nM
B1: human granulocyte colony-stimulating factor (ligand, UniProt P09919 31-207, looked up)
chain: TPLGPASSLPQSFLLKCLEQVRKIQGDGAALQEKLVSECATYKLCHPEELVLLGHSLGIPWAPLSSCPSQALQLAGCLSQLHSGLFLYQGLLQALEGISPELGPTLDTLQLDVADFATTIWQQMEELGMAPALQPTQGAMPAFASAFQRRAGGVLVASHLQSFLEVSYRVLRHLAQP
modifications: 125I Bolton-Hunter reagent label (site not stated)
